Here are results for one substance from paper PMC10697951.

Common to all, as to test: MST
Data set [1] has as its system SUV420H1(1-390) K258A (human). As to conditions: histone H4 K20M; MST: 20 mM HEPES pH 7.5, 50 mM NaCl (listed twice), 50 mM KCl, 1 mg/mL BSA, 0.05% Tween-20, 40 uM SAM, 2 mM DTT, room temperature; EMSA: 25 mM HEPES pH 7.5 …. A general note: Mobility shift assays separate free from complexed probe on a gel.
The subject of data set [2] is SUV420H1(1-390) R220A (human). The conditions noted are these: 40 uM SAM; text says NCP H2A, legend H4K20M; histone H4 K20M; MST: 20 mM HEPES pH 7.5, 50 mM NaCl (listed twice), 50 mM KCl, 1 mg/mL BSA, 0.05% Tween-20, 40 uM SAM, 2 mM DTT, room temperature; EMSA: 25 mM HEPES pH 7.5 ….
The test system of data set [3] is SUV420H1(1-390) R257A (human). The conditions noted are these: histone H4 K20M; MST: 20 mM HEPES pH 7.5, 50 mM NaCl (listed twice), 50 mM KCl, 1 mg/mL BSA, 0.05% Tween-20, 40 uM SAM, 2 mM DTT, room temperature; EMSA: 25 mM HEPES pH 7.5 ….
The test system of data set [4] is SUV420H1(1-390) R286A (human). As to conditions: histone H4 K20M; MST: 20 mM HEPES pH 7.5, 50 mM NaCl (listed twice), 50 mM KCl, 1 mg/mL BSA, 0.05% Tween-20, 40 uM SAM, 2 mM DTT, room temperature; EMSA: 25 mM HEPES pH 7.5 ….
In data set [5] the test system is SUV420H1(1-390) R352A (human). As to conditions: 40 uM SAM; text says NCP H2A, legend H4K20M; histone H4 K20M; MST: 20 mM HEPES pH 7.5, 50 mM NaCl (listed twice), 50 mM KCl, 1 mg/mL BSA, 0.05% Tween-20, 40 uM SAM, 2 mM DTT, room temperature; EMSA: 25 mM HEPES pH 7.5 ….
Data set [6] concerns SUV420H1(1-390) R357A (human). As to conditions: 40 uM SAM; text says NCP H2A, legend H4K20M; histone H4 K20M; MST: 20 mM HEPES pH 7.5, 50 mM NaCl (listed twice), 50 mM KCl, 1 mg/mL BSA, 0.05% Tween-20, 40 uM SAM, 2 mM DTT, room temperature; EMSA: 25 mM HEPES pH 7.5 ….
Data set [7] relates to SUV420H1(1-390) R357H (human). The conditions noted are these: 40 uM SAM; text says NCP H2A, legend H4K20M; histone H4 K20M; MST: 20 mM HEPES pH 7.5, 50 mM NaCl (listed twice), 50 mM KCl, 1 mg/mL BSA, 0.05% Tween-20, 40 uM SAM, 2 mM DTT, room temperature; EMSA: 25 mM HEPES pH 7.5 ….
For data set [8], the system named is SUV420H1(1-390) S255F (human). The conditions noted are these: histone H4 K20M; MST: 20 mM HEPES pH 7.5, 50 mM NaCl (listed twice), 50 mM KCl, 1 mg/mL BSA, 0.05% Tween-20, 40 uM SAM, 2 mM DTT, room temperature; EMSA: 25 mM HEPES pH 7.5 ….
In data set [9] the test system is SUV420H1(1-390) S283L (human). The conditions noted are these: histone H4 K20M; MST: 20 mM HEPES pH 7.5, 50 mM NaCl (listed twice), 50 mM KCl, 1 mg/mL BSA, 0.05% Tween-20, 40 uM SAM, 2 mM DTT, room temperature; EMSA: 25 mM HEPES pH 7.5 ….
Data set [10] concerns SUV420H1(1-390) Y349A (human). The conditions noted are these: 40 uM SAM; text says NCP H2A, legend H4K20M; histone H4 K20M; MST: 20 mM HEPES pH 7.5, 50 mM NaCl (listed twice), 50 mM KCl, 1 mg/mL BSA, 0.05% Tween-20, 40 uM SAM, 2 mM DTT, room temperature; EMSA: 25 mM HEPES pH 7.5 ….

By Kd is commonly meant the free concentration of one partner at which half of the binding sites on the other are occupied at equilibrium, for simple one-to-one binding. A low value points to tighter binding. As to NCP H2A, H4K20M, the Kd in [1] was determined as 112 nM; in [2] it was 93 nM; in [3], 144 nM; in data set [4] it was 323 nM; in [5] it was 220 nM; in [6] it was 213 nM. The Kd in data set [7] turned out to be 83 nM; in [8] it was 182 nM; in data set [9], 85 nM; in [10] it was 108 nM.
